This note sets out measurements from patent publication US20160319027A1.

This experiment deals with human TrkA on TF-1 cells (human), P04629. The experiment in a line: cell-based or functional assay.
human TrkA on TF-1 cells (human), P04629, sequence (P04629 33-796): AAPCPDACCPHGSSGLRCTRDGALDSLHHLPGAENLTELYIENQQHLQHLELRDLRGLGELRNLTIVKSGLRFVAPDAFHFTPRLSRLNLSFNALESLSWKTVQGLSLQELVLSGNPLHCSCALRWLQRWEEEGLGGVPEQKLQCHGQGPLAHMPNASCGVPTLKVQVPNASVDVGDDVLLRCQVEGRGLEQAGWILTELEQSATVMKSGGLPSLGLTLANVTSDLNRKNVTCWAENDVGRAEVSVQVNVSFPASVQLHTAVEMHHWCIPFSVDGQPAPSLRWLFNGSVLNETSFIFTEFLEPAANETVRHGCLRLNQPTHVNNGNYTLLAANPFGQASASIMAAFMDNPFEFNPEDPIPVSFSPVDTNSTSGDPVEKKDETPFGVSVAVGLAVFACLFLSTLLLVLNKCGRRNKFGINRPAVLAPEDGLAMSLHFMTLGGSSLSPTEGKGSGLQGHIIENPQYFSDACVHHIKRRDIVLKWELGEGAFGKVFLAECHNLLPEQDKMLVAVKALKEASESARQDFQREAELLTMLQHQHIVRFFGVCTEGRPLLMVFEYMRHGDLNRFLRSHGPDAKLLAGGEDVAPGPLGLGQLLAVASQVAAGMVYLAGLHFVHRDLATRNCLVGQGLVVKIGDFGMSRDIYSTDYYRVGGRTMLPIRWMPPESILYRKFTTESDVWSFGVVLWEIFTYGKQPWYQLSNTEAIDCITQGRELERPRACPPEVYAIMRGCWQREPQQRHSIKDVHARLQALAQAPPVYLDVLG

B1: MNAC13 mouse antibody (antibody, mouse IgG1, kappa)
heavy: EVKLVESGGGLVQPGGSLKLSCAASGFTFSTYTMSWARQTPEKRLEWVAYISKGGGSTYYPDTVKGRFTISRDNAKNTLYLQMSSLKSEDTALYYCARGAMYGNDFFYPMDYWGQGTSVTVSSKTTPPSVYPLAPGSAAQTNSMVTLGCLVKGYFPEPVTVTWNSGSLSSGVHTFPAVLESDLYTLSSSVTVPSSPRPSETVTCNVAHPASSTKVDKKIVPRDCGCKPCICTVPEVSSVFIFPPKPKDVLTITLTPKVTCVVVDISKDDPEVQFSWFVDDVEVHTAQTQPREEQFNSTFRSVSELPIMHQDWLNGKEFKCRVNSAAFPAPIEKTISKTKGRPKAPQVYTIPPPKEQMAKDKVSLTCMITDFFPEDITVEWQWNGQPAENYKNTQPIMNTNGSYFVYSKLNVQKSNWEAGNTFTCSVLHEGLHNHHTEKSLSHSPGK
light: QIVLTQSPAIMSASLGEEITLTCSASSSVSYMHWYQQKSGTSPKLLIYTTSNLASGVPSRFSGSGSGTFYSLTISSVEAEDAADYYCHQWSSYPWTFGGGTKLEIKADAAPTVSIFPPSSEQLTSGGASVVCFLNNFYPKDINVKWKIDGSERQNGVLNSWTDQDSKDSTYSMSSTLTLTKDEYERHNSYTCEATHKTSTSPIVKSFNRNEC
With B1, the TF-1 cell proliferation assay IC50 (5 ng/ml human beta-NGF) worked out at 0.23 µg/mL.
